Measured values taken from publication PMC9276669, “Purification, characterization, and preliminary serial crystallography diffraction advances structure determination of full-length human particulate guanylyl cyclase A receptor” (Scientific Reports, 2022).
Values joined by “and” are separate entries in the source; they are usually repeats but may differ in a detail not shown here. Equal entries are not always repeated.

Molecular target: the molecule itself
Test: SEC; Superose 6 Increase 10/300 GL, 50 mM HEPES-NaOH pH 7.5, 150 mM NaCl, 5 mM DTT, 10% glycerol, 0.05% DDM, 0.01% CHS, 4 °C; more concentrated injected sample (about 300 uL); sizes by comparison with five standard proteins; monomer to tetramer

B1: full-length human particulate guanylyl cyclase A receptor (pGC-A) (receptor, UniProt P16066 33-1061, looked up)
chain: GNLTVAVVLPLANTSYPWSWARVGPAVELALAQVKARPDLLPGWTVRTVLGSSENALGVCSDTAAPLAAVDLKWEHNPAVFLGPGCVYAAAPVGRFTAHWRVPLLTAGAPALGFGVKDEYALTTRAGPSYAKLGDFVAALHRRLGWERQALMLYAYRPGDEEHCFFLVEGLFMRVRDRLNITVDHLEFAEDDLSHYTRLLRTMPRKGRVIYICSSPDAFRTLMLLALEAGLCGEDYVFFHLDIFGQSLQGGQGPAPRRPWERGDGQDVSARQAFQAAKIITYKDPDNPEYLEFLKQLKHLAYEQFNFTMEDGLVNTIPASFHDGLLLYIQAVTETLAHGGTVTDGENITQRMWNRSFQGVTGYLKIDSSGDRETDFSLWDMDPENGAFRVVLNYNGTSQELVAVSGRKLNWPLGYPPPDIPKCGFDNEDPACNQDHLSTLEVLALVGSLSLLGILIVSFFIYRKMQLEKELASELWRVRWEDVEPSSLERHLRSAGSRLTLSGRGSNYGSLLTTEGQFQVFAKTAYYKGNLVAVKRVNRKRIELTRKVLFELKHMRDVQNEHLTRFVGACTDPPNICILTEYCPRGSLQDILENESITLDWMFRYSLTNDIVKGMLFLHNGAICSHGNLKSSNCVVDGRFVLKITDYGLESFRDLDPEQGHTVYAKKLWTAPELLRMASPPVRGSQAGDVYSFGIILQEIALRSGVFHVEGLDLSPKEIIERVTRGEQPPFRPSLALQSHLEELGLLMQRCWAEDPQERPPFQQIRLTLRKFNRENSSNILDNLLSRMEQYANNLEELVEERTQAYLEEKRKAEALLYQILPHSVAEQLKRGETVQAEAFDSVTIYFSDIVGFTALSAESTPMQVVTLLNDLYTCFDAVIDNFDVYKVETIGDAYMVVSGLPVRNGRLHACEVARMALALLDAVRSFRIRHRPQEQLRLRIGIHTGPVCAGVVGLKMPRYCLFGDTVNTASRMESNGEALKIHLSSETKAVLEEFGGFELELRGDVEMKGKGKVRTYWLLGERGSSTRG
notes: transmembrane domain at residues 474-495; no TEV cleavage step is described; Found as monomer and as tetramer, depending on protein concentration; also called Particulate Guanylyl Cyclase Receptor A; natriuretic peptide receptor A; source: also on whole transfected Sf9 cells
- stoichiometry N: 4 and 2
